Measured values published in the supplement of paper PMC9112550, “Optimization of the antimicrobial peptide Bac7 by deep mutational scanning” (BMC Biology, 2022).
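Further: peptides expressed intracellularly from a pBAD plasmid library in pooled LB shake-flask culture, induced with 0.3% L-arabinose, DNA abundance read by NGS, three biological replicates, DESeq2 with apeglm shrinkage.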

The sequences below were run on Escherichia coli TOP10 (assay: shrunken log2 fold change of peptide-encoding DNA abundance (4.5 h post-induction vs induction); higher = less antimicrobial activity (less host growth inhibition)). Conditions: time post-induction: 4.5 h; library: site-saturation at positions 5, 18, 19, 20.
For RRIRYRPPRLPRPRPRPEAFPRP, the “shrunken log2 fold change” value was -0.00226. With RRIRQRPPRLPRPRPRPRHMPRP the “shrunken log2 fold change” value was -0.316. In the case of RRIRTRPPRLPRPRPRPQNEPRP, the “shrunken log2 fold change” value is reported as -0.276. With RRIRERPPRLPRPRPRPWLQPRP the “shrunken log2 fold change” value was 0.0293. With RRIRFRPPRLPRPRPRPAFDPRP the “shrunken log2 fold change” value was 0.128. For RRIRQRPPRLPRPRPRPQYMPRP, the “shrunken log2 fold change” value was -0.587. For RRIRQRPPRLPRPRPRPPFDPRP, the “shrunken log2 fold change” value was 0.283. In the case of RRIRERPPRLPRPRPRPSIPPRP, the “shrunken log2 fold change” value is reported as -0.758. With RRIRARPPRLPRPRPRPGYIPRP the “shrunken log2 fold change” value was -0.383. For RRIRCRPPRLPRPRPRPKCHPRP, the “shrunken log2 fold change” value was 0.205. For RRIRARPPRLPRPRPRPHWEPRP, the “shrunken log2 fold change” value was -0.00635. RRIRGRPPRLPRPRPRPDCCPRP was tested, and the “shrunken log2 fold change” value was 1.34. In the case of RRIRYRPPRLPRPRPRPVHSPRP, the “shrunken log2 fold change” value is reported as -0.155. With RRIRHRPPRLPRPRPRPPSLPRP the “shrunken log2 fold change” value was -0.0977. In the case of RRIRWRPPRLPRPRPRPISPPRP, the “shrunken log2 fold change” value is reported as -0.887. RRIRYRPPRLPRPRPRPCYHPRP was tested, and the “shrunken log2 fold change” value was -0.289. In the case of RRIRWRPPRLPRPRPRPITHPRP, the “shrunken log2 fold change” value is reported as -0.126. RRIRFRPPRLPRPRPRPNRCPRP was tested, and the “shrunken log2 fold change” value was -0.717. RRIRPRPPRLPRPRPRPLAQPRP was tested, and the “shrunken log2 fold change” value was 0.192. For RRIRSRPPRLPRPRPRPQHTPRP, the “shrunken log2 fold change” value was -0.424. For RRIRMRPPRLPRPRPRPEPNPRP, the “shrunken log2 fold change” value was 2.18. In the case of RRIRFRPPRLPRPRPRPNYFPRP, the “shrunken log2 fold change” value is reported as -0.383. RRIRNRPPRLPRPRPRPHFKPRP was tested, and the “shrunken log2 fold change” value was -0.52. For RRIRWRPPRLPRPRPRPYIPPRP, the “shrunken log2 fold change” value was -1.15. For RRIRRRPPRLPRPRPRPYSCPRP, the “shrunken log2 fold change” value was -0.0958. In the case of RRIRTRPPRLPRPRPRPMTHPRP, the “shrunken log2 fold change” value is reported as -0.633. With RRIRVRPPRLPRPRPRPRTLPRP the “shrunken log2 fold change” value was -0.222. RRIRWRPPRLPRPRPRPLSMPRP was tested, and the “shrunken log2 fold change” value was -0.159. In the case of RRIRTRPPRLPRPRPRPKKYPRP, the “shrunken log2 fold change” value is reported as -0.627. RRIRLRPPRLPRPRPRPCQVPRP was tested, and the “shrunken log2 fold change” value was -0.128. With RRIRNRPPRLPRPRPRPEGLPRP the “shrunken log2 fold change” value was 0.364. RRIRTRPPRLPRPRPRPVWPPRP was tested, and the “shrunken log2 fold change” value was 0.332. For RRIRARPPRLPRPRPRPRMAPRP, the “shrunken log2 fold change” value was 0.479. RRIRIRPPRLPRPRPRPDLNPRP was tested, and the “shrunken log2 fold change” value was -0.211. With RRIRYRPPRLPRPRPRPARGPRP the “shrunken log2 fold change” value was 0.515. In the case of RRIRYRPPRLPRPRPRPDDPPRP, the “shrunken log2 fold change” value is reported as -0.239. With RRIRWRPPRLPRPRPRPMTVPRP the “shrunken log2 fold change” value was -0.0472. RRIRQRPPRLPRPRPRPASTPRP was tested, and the “shrunken log2 fold change” value was -0.0855. With RRIRCRPPRLPRPRPRPIIWPRP the “shrunken log2 fold change” value was -0.178. In the case of RRIRLRPPRLPRPRPRPDCWPRP, the “shrunken log2 fold change” value is reported as 0.362. RRIRKRPPRLPRPRPRPLQRPRP was tested, and the “shrunken log2 fold change” value was 0.331. For RRIRRRPPRLPRPRPRPSQPPRP, the “shrunken log2 fold change” value was 0.104. For RRIRRRPPRLPRPRPRPIVDPRP, the “shrunken log2 fold change” value was 0.841. RRIRERPPRLPRPRPRPMRCPRP was tested, and the “shrunken log2 fold change” value was 0.0239. RRIRLRPPRLPRPRPRPYKMPRP was tested, and the “shrunken log2 fold change” value was -0.851. RRIRGRPPRLPRPRPRPWKPPRP was tested, and the “shrunken log2 fold change” value was 0.0444. RRIRHRPPRLPRPRPRPPQTPRP was tested, and the “shrunken log2 fold change” value was -0.00347. For RRIRPRPPRLPRPRPRPDGTPRP, the “shrunken log2 fold change” value was -0.122. RRIRERPPRLPRPRPRPTPPPRP was tested, and the “shrunken log2 fold change” value was 0.491. With RRIRQRPPRLPRPRPRPGTAPRP the “shrunken log2 fold change” value was 0.206. With RRIRNRPPRLPRPRPRPGHGPRP the “shrunken log2 fold change” value was -0.19. RRIRMRPPRLPRPRPRPARQPRP was tested, and the “shrunken log2 fold change” value was 0.825. For RRIRWRPPRLPRPRPRPDFNPRP, the “shrunken log2 fold change” value was -0.0747. With RRIRFRPPRLPRPRPRPWRYPRP the “shrunken log2 fold change” value was -0.161. RRIRDRPPRLPRPRPRPHSHPRP was tested, and the “shrunken log2 fold change” value was -0.19. With RRIRFRPPRLPRPRPRPKGWPRP the “shrunken log2 fold change” value was 0.589. For RRIRQRPPRLPRPRPRPPPYPRP, the “shrunken log2 fold change” value was -0.0506. For RRIRGRPPRLPRPRPRPHQIPRP, the “shrunken log2 fold change” value was 0.103. For RRIRQRPPRLPRPRPRPLFEPRP, the “shrunken log2 fold change” value was 0.0725. With RRIRKRPPRLPRPRPRPRFNPRP the “shrunken log2 fold change” value was 0.0969. For RRIRKRPPRLPRPRPRPHWHPRP, the “shrunken log2 fold change” value was -0.0666. For RRIRGRPPRLPRPRPRPFEGPRP, the “shrunken log2 fold change” value was 0.0595. In the case of RRIRERPPRLPRPRPRPSSAPRP, the “shrunken log2 fold change” value is reported as 0.0581. RRIRKRPPRLPRPRPRPKWPPRP was tested, and the “shrunken log2 fold change” value was -0.031. With RRIRIRPPRLPRPRPRPCPFPRP the “shrunken log2 fold change” value was -1.38. In the case of RRIRTRPPRLPRPRPRPGEHPRP, the “shrunken log2 fold change” value is reported as -0.187. With RRIRIRPPRLPRPRPRPQIHPRP the “shrunken log2 fold change” value was -0.796. RRIRARPPRLPRPRPRPHLIPRP was tested, and the “shrunken log2 fold change” value was -0.0757. For RRIRSRPPRLPRPRPRPMNEPRP, the “shrunken log2 fold change” value was -0.457. For RRIRKRPPRLPRPRPRPHDIPRP, the “shrunken log2 fold change” value was 0.168. In the case of RRIRWRPPRLPRPRPRPADGPRP, the “shrunken log2 fold change” value is reported as 0.0472. With RRIRVRPPRLPRPRPRPDQVPRP the “shrunken log2 fold change” value was -0.202. In the case of RRIRTRPPRLPRPRPRPRWFPRP, the “shrunken log2 fold change” value is reported as 0.196. RRIRVRPPRLPRPRPRPEITPRP was tested, and the “shrunken log2 fold change” value was -0.159. With RRIRKRPPRLPRPRPRPKWSPRP the “shrunken log2 fold change” value was 0.506.
